Measurements published in patent US20240240209A1, “SYNTHESIS OF ENANTIOPURE CIS-A-IRONE FROM A RENEWABLE CARBON SOURCE” (Agency for Science, Technology and Research, priority 2021, published 2024).
Where a chain is given by its changes, count along the chain named. Names may count otherwise.

B1: mtn: 5′-methylthioadenosine/S-adenosylhomocysteine nucleosidase, auxiliary enzyme hydrolysing SAH (protein, UniProt P0AF12 1-232, looked up)
5'-methylthioadenosine/S-adeno …: MKIGIIGAMEEEVTLLRDKIENRQTISLGGCEIYTGQLNGTEVALLKSGIGKVAAALGATLLLEHCKPDVIINTGSAGGLAPTLKVGDIVVSDEARYHDADVTAFGYEYGQLPGCPAGFKADDKLIAAAEACIAELNLNAVRGLIVSGDAFINGSVGLAKIRHNFPQAIAVEMEATAIAHVCHNFNVPFVVVRAISDVADQQSHLSFDEFLAVAAKQSSLMVESLVQKLAHG
B2: mtaD: 5-methylthioadenosine/S-adenosylhomocysteine deaminase, auxiliary enzyme deaminating SAH (protein, UniProt Q9X034 1-406, looked up)
5-methylthioadenosine/S-adenos …: MIIGNCLILKDFSSEPFWGAVEIENGTIKRVLQGEVKVDLDLSGKLVMPALFNTHTHAPMTLLRGVAEDLSFEEWLFSKVLPIEDRLTEKMAYYGTILAQMEMARHGIAGFVDMYFHEEWIAKAVRDFGMRALLTRGLVDSNGDDGGRLEENLKLYNEWNGFEGRIFVGFGPHSPYLCSEEYLKRVFDTAKSLNAPVTIHLYETSKEEYDLEDILNIGLKEVKTIAAHCVHLPERYFGVLKDIPFFVSHNPASNLKLGNGIAPVQRMIEHGMKVTLGTDGAASNNSLNLFFEMRLASLLQKAQNPRNLDVNTCLKMVTYDGAQAMGFKSGKIEEGWNADLVVIDLDLPEMFPVQNIKNHLVHAFSGEVFATMVAGKWIYFDGEYPTIDSEEVKRELARIEKELYSS
B3: pMT12: pMT1 with Y200F S182E L273V L180A A202L Y65F C156D T91P N231D (protein)
chain: MPQEARTPQQQVTADEVGDWYDKFGEVYHLTLGESVHCGLWFPPDAPVPQDMELVTMSSQAQDRFTDYLIETLDPKAGQHLLDIGCGTGRPALKAARQRGIAVTGVAVSKEQIAAANRLAAGHGLTERLTFEVADAMRLPYEDESFDCAWAIESLDHMDRAKALGEAWRVLKPGGDLLVAEEVVTEELTEPETALFETLFALNVPPRLGEFFDIVSGAGFHTLSLKDLSADLAMTMNVFALGVYSRRAEFTERFGAEFVDGLLAGLGSAQETVIRKTRFFMATLRKPAV
modifications: Modified from pMT1
notes: pMT1 with Y200F S182E L273V L180A A202L Y65F C156D T91P N231D
B4: F212L: pMT12 with F212L (protein)
chain: B3 chain with F212L
modifications: Modified from pMT1
B5: S268H: pMT12 with S268H (protein)
chain: B3 chain with S268H
modifications: Modified from pMT1
B6: A95C: pMT12 with A95C (protein)
chain: B3 chain with A95C
modifications: Modified from pMT1
B7: Q60V: pMT7 with Q60V (protein)
chain: B3 chain with Q60K, P91T, D156C, D231N
modifications: Modified from pMT1
B8: Q11M (protein)
chain: B3 chain with Q11M
modifications: Modified from pMT1
B9: A269R (protein)
chain: B3 chain with A269R
modifications: Modified from pMT1
B10: A269L (protein)
chain: B3 chain with A269L
modifications: Modified from pMT1
B11: T185L (protein)
chain: B3 chain with T185L
modifications: Modified from pMT1
B12: Q11V (protein)
chain: B3 chain with Q11V
modifications: Modified from pMT1
B13: K94V (protein)
chain: B3 chain with K94V
modifications: Modified from pMT1
B14: K94R (protein)
chain: B3 chain with K94R
modifications: Modified from pMT1
B15: A95L (protein)
chain: B3 chain with A95L
modifications: Modified from pMT1
B16: A269G (protein)
chain: B3 chain with A269G
modifications: Modified from pMT1
B17: H123N (protein)
chain: B3 chain with H123N
modifications: Modified from pMT1
B18: T185V (protein)
chain: B3 chain with T185V
modifications: Modified from pMT1
B19: E190A (protein)
chain: B3 chain with E190A
modifications: Modified from pMT1
B20: A107S (protein)
chain: B3 chain with A107S
modifications: Modified from pMT1
B21: S268L (protein)
chain: B3 chain with S268L
modifications: Modified from pMT1
B22: A95V (protein)
chain: B3 chain with A95V
modifications: Modified from pMT1
B23: A95I (protein)
chain: B3 chain with A95I
modifications: Modified from pMT1
B24: A107G (protein)
chain: B3 chain with A107G
modifications: Modified from pMT1
B25: A269Y (protein)
chain: B3 chain with A269Y
modifications: Modified from pMT1
B26: Q11P (protein)
chain: B3 chain with Q11P
modifications: Modified from pMT1
B27: Q11L (protein)
chain: B3 chain with Q11L
modifications: Modified from pMT1

Test: Purified pMT7/pMT10 reaction with auxiliary enzymes mtn and mtaD
Assay type: biochemical
Settings: 20 μM SAH introduced in the purified enzymatic reaction
Excerpt: All the purified enzyme reactions were done in triplicates.
An alternative strategy to reduce SAH inhibition is to introduce auxiliary enzymes that degrade SAH12 (FIG. 18a). […] Noteworthy, with mtaD enzyme, cis-α-irone production by pMT10 was improved by ˜2.5 fold as compared to pMT10 reaction alone (FIG. 3c). […] This somewhat agrees with the effect of mutating D135, which abolishes the hydrogen bond interaction between pMT7 and the amine group of the adenine moiety.

Molecule | effect of supplementary auxiliary enzyme on pMT7 and pMT10 activity
B1 | restored pMT7 and pMT10 activity
B2 | restored pMT7 and pMT10 activity

Test: Cell lysate reaction of pMT enzymes with psi-ionone, irones quantified by HS-SPME-GCMS
Assay type: biochemical
Settings: cell lysate reaction, vs parent or control
Method in brief: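 pMT1 site-saturation mutants were expressed in E. coli BL21(DE3) and lysed, and lysates were incubated 2 days at 28 °C with 0.2 mM SAM and 10 mg/L psi-ionone (plus caryophyllene) in 50 mM Tris pH 7, 10 mM MgCl2. Cis-α-irone was measured by HS-SPME-GCMS peak area and given as fold change over non-mutated enzyme.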

Molecule | irone production / methyltransferase activity towards psi-ionone (in words)
B3 | maintained the percentage of cis-α-irone produced while further improving the absolute amount produced

Same assay, conditions: single mutations vs parent (pMT7 or pMT12)

Molecule | in-vitro production of cis-α-irone (in words)
B4 | moderate increase
B5 | moderate increase
B6 | moderate increase
B7 | increased the cis-α-irone production in-vitro

Test: In-vivo cis-α-irone production screening of pMT7 and pMT12 mutants
Assay type: cell-based, Escherichia coli
Settings: mutations made to pMT12; normalized to pMT12 (=1)
Method in brief: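 E. coli BL21(DE3) ΔaroA ΔaroB ΔaroC ΔserC strains, with or without ΔmetJ, carried the plasmids and were grown in 1 ml auto-inducing defined medium (glucose/glycerol, 30 mM lactose) at 28 °C for 3 days. Products were extracted into hexane and measured by GC-MS. Production is a semi-quantitative fold change relative to pMT12.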

Molecule | Fold change in in-vivo cis-α-irone production
B3 | 1
B8 | 0.90
B9 | 1.22
B10 | 1.29
B11 | 1.07
B12 | 0.88
B13 | 0.84
B14 | 0.97
B4 | 1.11
B15 | 0.92
B5 | 1.26
B16 | 1.23
B17 | 0.91
B18 | 1.14
B19 | 1.12
B20 | 1.17
B21 | 1.18
B22 | 0.94
B23 | 0.98
B24 | 0.95
B25 | 1.21
B6 | 0.95
B26 | 0.92
B27 | 0.92

Same assay, conditions: single mutations vs parent (pMT7 or pMT12)

Molecule | in-vivo production of cis-α-irone (in words)
B7 | increased cis-α-irone production in-vivo
